This is an account of results in PMC7891125 (Cell, 2021).

The target in assay [1] is SARS-CoV-2 spike on intact virus (SARS-CoV-2/human/AUS/VIC01/2020) (SARS-CoV-2, isolate …, strain). Put plainly: cell-based or functional assay.
Assay [2] deals with His-tagged SARS-CoV-2 RBD (SARS-CoV-2 Wuhan-Hu-1 (MN908947), UniProt P0DTC2). Put plainly: BLI; Octet RED 96e; anti-RBD IgGs immobilised on AR2G biosensors, RBD as the analyte in serial dilutions; 1:1 global fitting model. The conditions noted are these: both partners purified. For orientation: BLI is a label-free optical method that tracks binding on a fibre tip over time.

B1: mAb 159 (antibody, V domains shown)
VH: EVQLVESGGGVVQPGRSLRLSCAASGFTFSSYGMHWVRQAPGKGLEWVALISYDGGNRYYADSVKGRFTISRDNSKNTLYLQMNRLRAEDTAMYYCAKDRDDGWDWYYFMDVWGKGTTVTVSS
VL: DIQLTQSPGTLSLSPGERATLSCRASQSISGNYLAWYQHKPGQAPRLLIYGASTRATGIPDRFSGSGSGTDFTLTISRLEPEDFAVYYCQQYGSSYTFGQGTKVEIK
With B1, in assay [1], the “FRNT, neutralisation of authentic SARS-CoV-2 on Vero cells, IC50” value amounted to 5 ng/mL.

B2: mAb 316, de-glycosylated (antibody, V domains shown)
VH: not shown
VL: QAVLTQPPSASGSPGQSVTISCTGTSSDVGGYNYVSWYQQHPGKAPKLMIYEVSKRPSGVPDRFSGSKSGNTASLTVSGLQAEDEADYYCSSYAGSNHWVFGGGTKLTVL
Usually Kd stands for the equilibrium constant for the complex coming apart. In turn, B2 came in with a Kd in assay [2] of 1 nM.

B3: mAb 316 (antibody, V domains shown)
VH: not shown
VL: B2 VL
Consider B3, for which, in assay [2], the Kd was 2 nM.
